Reference: patent publication US20140363844

Tests used:
[1] = molecular target: T1, Presegetalin A1[14,32]E26A
T1 chain: GVPVWAFQAKDVANASAPV

[2] = molecular target: T2, Presegetalin A1[14,30]
T2 chain: GVPVWAFQAKDVENAPV

[3] = molecular target: T3, Presegetalin A1[14,32]V32A
T3 chain: GVPVWAFQAKDVENASAPA

[4] = molecular target: T4, Presegetalin A1[14,32]
T4 chain: GVPVWAFQAKDVENASAPV

[5] = molecular target: T5, Presegetalin A1[14,32]P16p
T5 chain: GVPVWAFQAKDVENASAPV

[6] = molecular target: T6, Presegetalin A1[14,32]Q21A
T6 chain: GVPVWAFAAKDVENASAPV

[7] = molecular target: T7, Presegetalin A1[14,20]
T7 chain: GVPVWAF

[8] = molecular target: T8, Presegetalin A1[14,24]
T8 chain: GVPVWAFQAKD

[9] = molecular target: T9, Presegetalin A1[14,32] P16p W18A
T9 chain: GVPVAAFQAKDVENASAPV

[10] = molecular target: T10, Presegetalin A1[14,32]V25A
T10 chain: GVPVWAFQAKDAENASAPV

[11] = molecular target: T11, Presegetalin A1[14,32]V15A
T11 chain: GAPVWAFQAKDVENASAPV

[12] = molecular target: T12, Presegetalin A1[14,32]K23A
T12 chain: GVPVWAFQAADVENASAPV

[13] = molecular target: T13, Presegetalin J1[14,36]
T13 chain: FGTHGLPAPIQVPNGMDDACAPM

[14] = molecular target: T14, Presegetalin D1[14,31]
T14 chain: GLSFAFPAKDAENASSPV

[15] = molecular target: T15, Presegetalin A1[14,32]W18w
T15 chain: GVPVWAFQAKDVENASAPV

[16] = molecular target: T16, Presegetalin A1[14,32] P16p W18a
T16 chain: GVPVAAFQAKDVENASAPV

[17] = molecular target: T17, Presegetalin A1[14,32]D24A
T17 chain: GVPVWAFQAKAVENASAPV

B1: Saponaria vaccaria PCY1 (recombinant, N-terminal His6-tag, expressed in E. coli from pCB008) (protein)
chain: MATSGFSKPLHYPPVRRDETVVDDYFGVKVADPYRWLEDPNSEETKEFVDNQEKLANSVLEECELIDKFKQKIIDFVNFPRCGVPFRRANKYFHFYNSGLQAQNVFQMQDDLDGKPEVLYDPNLREGGRSGLSLYSVSEDAKYFAFGIHSGLTEWVTIKILKTEDRSYLPDTLEWVKFSPAIWTHDNKGFFYCPYPPLKEGEDHMTRSAVNQEARYHFLGTDQSEDILLWRDLENPAHHLKCQITDDGKYFLLYILDGCDDANKVYCLDLTKLPNGLESFRGREDSAPFMKLIDSFDASYTAIANDGSVFTFQTNKDAPRKKLVRVDLNNPSVWTDLVPESKKDLLESAHAVNENQLILRYLSDVKHVLEIRDLESGALQHRLPIDIGSVDGITARRRDSVVFFKFTSILTPGIVYQCDLKNDPTQLKIFRESVVPDFDRSEFEVKQVFVPSKDGTKIPIFIAARKGISLDGSHPCEMHGYGGFGINMMPTFSASRIVFLKHLGGVFCLANIRGGGEYGEEWHKAGFRDKKQNVFDDFISAAEYLISSGYTKARRVAIEGGSNGGLLVAACINQRPDLFGCAEANCGVMDMLRFHKFTLGYLWTGDYGCSDKEEEFKWLIKYSPIHNVRRPWEQPGNEETQYPATMILTADHDDRVVPLHSFKLLATMQHVLCTSLEDSPQKNPIIARIQRKAAHYGRATMTQIAEVADRYGFMAKALEAPWID
LP (linear peptide product detected by LC/MS) [1]: + | linear segetalin A production relative to WT substrate [1]: showed a relative increase in production of linear segetalin A | segetalin A production relative to WT substrate [1]: substitutions at positions 25, 26 and 29 (No. 18, 19 and 22) yielded relatively higher amounts of segetalin A than that produced from WT substrate | CP (cyclic peptide product detected by LC/MS) [2]: - | LP (linear peptide product detected by LC/MS) [2]: + | linear peptide formation (LC/MS, MS/MS) [2]: showed linear peptide formation almost equivalent to the linear peptide formed from the WT substrate (No. 1) | CP (cyclic peptide product detected by LC/MS) [3]: + | LP (linear peptide product detected by LC/MS) [3]: + | linear segetalin A production relative to WT substrate [3]: showed a relative increase in production of linear segetalin A | CP (cyclic peptide product detected by LC/MS) [4]: + | LP (linear peptide product detected by LC/MS) [4]: + | PCY1 activity (total amount of segetalin A produced) [4]: 3 nmol/mg of protein/min | formation of segetalin A and linear segetalin A (LC/MS) [4]: purified PCY1 showed the formation of segetalin A and linear segetalin A in the presence of presegetalin A1[14,32] | CP (cyclic peptide product detected by LC/MS) [5]: + | LP (linear peptide product detected by LC/MS) [5]: - | CP (cyclic peptide product detected by LC/MS) [6]: + | LP (linear peptide product detected by LC/MS) [6]: + | linear segetalin A production relative to WT substrate [6]: a relative increase in production of linear segetalin A from all mutant substrates except with No. 13 and No. 14 | segetalin A production relative to WT substrate [6]: positions were found to be sensitive to substitution ... position 20, 21, 23, 24, 27, 28 and 31 | CP (cyclic peptide product detected by LC/MS) [7]: - | LP (linear peptide product detected by LC/MS) [7]: - | CP (cyclic peptide product detected by LC/MS) [8]: - | LP (linear peptide product detected by LC/MS) [8]: + | linear peptide formation (LC/MS, MS/MS) [8]: showed linear peptide formation almost equivalent to the linear peptide formed from the WT substrate (No. 1) | CP (cyclic peptide product detected by LC/MS) [9]: + | LP (linear peptide product detected by LC/MS) [9]: - | CP (cyclic peptide product detected by LC/MS) [10]: + | LP (linear peptide product detected by LC/MS) [10]: + | linear segetalin A production relative to WT substrate [10]: showed a relative increase in production of linear segetalin A | segetalin A production relative to WT substrate [10]: substitutions at positions 25, 26 and 29 (No. 18, 19 and 22) yielded relatively higher amounts of segetalin A than that produced from WT substrate | CP (cyclic peptide product detected by LC/MS) [11]: + | LP (linear peptide product detected by LC/MS) [11]: + | CP (cyclic peptide product detected by LC/MS) [12]: + | LP (linear peptide product detected by LC/MS) [12]: + | linear segetalin A production relative to WT substrate [12]: showed a relative increase in production of linear segetalin A | segetalin A production relative to WT substrate [12]: positions were found to be sensitive to substitution ... position 20, 21, 23, 24, 27, 28 and 31 | CP (cyclic peptide product detected by LC/MS) [13]: + | LP (linear peptide product detected by LC/MS) [13]: - | CP (cyclic peptide product detected by LC/MS) [14]: + | LP (linear peptide product detected by LC/MS) [14]: + | CP (cyclic peptide product detected by LC/MS) [15]: + | LP (linear peptide product detected by LC/MS) [15]: + | conversion to cyclic peptide (LC/MS) [15]: the W18w mutant of presegetalin A1 was apparently relatively weakly converted to cyclic peptide | CP (cyclic peptide product detected by LC/MS) [16]: + | LP (linear peptide product detected by LC/MS) [16]: - | CP (cyclic peptide product detected by LC/MS) [17]: + | LP (linear peptide product detected by LC/MS) [17]: + | linear segetalin A production relative to WT substrate [17]: showed a relative increase in production of linear segetalin A | segetalin A production relative to WT substrate [17]: segetalin A production was found to be ≧42 times lower than the WT substrate
